From paper PMC12126490 (2025)

Target: chromoshadow domain of HP1α (HP1αCSD, aa 109–185 of HP1α) (human, UniProt P45973 109-185)
Sequence (P45973 109-185): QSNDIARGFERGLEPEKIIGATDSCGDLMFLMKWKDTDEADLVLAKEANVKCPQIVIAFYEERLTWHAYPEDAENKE

B1: HP1 box-containing KAP1 peptide (KAP1_(Hbox), aa 483–493 of KAP1) (peptide)
peptide: RKVPRVSLERL
- Kd: 1.6 µM
